Reference: patent US20060140929A1 (Merck KGaA, published 2006)

molecular target: thrombin; assay: cell-based or functional assay

Binder	Relative Activity (ratio of variant IC50/WT IC50), chromogenic thrombin inhibition assay [ratio]
hirudin mutein M 20 (I29E L30Q) (other) VVYTDCTESGQNLCLCEGSVVCGQGNKCEQGSDGEKNQCVTGEGTPKPESHNDGDFEEIPEEYLQ	1.52
hirudin mutein M 2 (I29R L30H) (other) VVYTDCTESGQNLCLCEGSVVCGQGNKCRHGSDGEKNQCVTGEGTPKPESHNDGDFEEIPEEYLQ	1.2
hirudin mutein M 21 (I29E L30R) (other) VVYTDCTESGQNLCLCEGSVVCGQGNKCERGSDGEKNQCVTGEGTPKPESHNDGDFEEIPEEYLQ	1.21
hirudin mutein M 28 (I29S L30K) (other) VVYTDCTESGQNLCLCEGSVVCGQGNKCSKGSDGEKNQCVTGEGTPKPESHNDGDFEEIPEEYLQ	1.5
hirudin mutein M 33 (I29T L30K) (other) VVYTDCTESGQNLCLCEGSVVCGQGNKCTKGSDGEKNQCVTGEGTPKPESHNDGDFEEIPEEYLQ	1.6
hirudin mutein M 24 (I29R L30Q) (other) VVYTDCTESGQNLCLCEGSVVCGQGNKCRQGSDGEKNQCVTGEGTPKPESHNDGDFEEIPEEYLQ	1
hirudin mutein M 35 (I29T L30R) (other) VVYTDCTESGQNLCLCEGSVVCGQGNKCTRGSDGEKNQCVTGEGTPKPESHNDGDFEEIPEEYLQ	2.3
hirudin mutein M 43 (V21G) (other) VVYTDCTESGQNLCLCEGSVGCGQGNKCILGSDGEKNQCVTGEGTPKPESHNDGDFEEIPEEYLQ	1
hirudin mutein M 32 (I29T L30A) (other) VVYTDCTESGQNLCLCEGSVVCGQGNKCTAGSDGEKNQCVTGEGTPKPESHNDGDFEEIPEEYLQ	1.67
hirudin mutein M 25 (I29R L30R) (other) VVYTDCTESGQNLCLCEGSVVCGQGNKCRRGSDGEKNQCVTGEGTPKPESHNDGDFEEIPEEYLQ	1
hirudin mutein M 26 (I29R L30T) (other) VVYTDCTESGQNLCLCEGSVVCGQGNKCRTGSDGEKNQCVTGEGTPKPESHNDGDFEEIPEEYLQ	1
hirudin mutein M 11 (I29R L30R V40T) (other) VVYTDCTESGQNLCLCEGSVVCGQGNKCRRGSDGEKNQCTTGEGTPKPESHNDGDFEEIPEEYLQ	0.7
hirudin mutein M 44 (V21H) (other) VVYTDCTESGQNLCLCEGSVHCGQGNKCILGSDGEKNQCVTGEGTPKPESHNDGDFEEIPEEYLQ	0.74
hirudin mutein M 42 (V21A) (other) VVYTDCTESGQNLCLCEGSVACGQGNKCILGSDGEKNQCVTGEGTPKPESHNDGDFEEIPEEYLQ	0.93
hirudin mutein M 45 (V21K) (other) VVYTDCTESGQNLCLCEGSVKCGQGNKCILGSDGEKNQCVTGEGTPKPESHNDGDFEEIPEEYLQ	0.9
hirudin mutein M 23 (I29R L30K) (other) VVYTDCTESGQNLCLCEGSVVCGQGNKCRKGSDGEKNQCVTGEGTPKPESHNDGDFEEIPEEYLQ	0.93
hirudin mutein M 29 (I29S L30Q) (other) VVYTDCTESGQNLCLCEGSVVCGQGNKCSQGSDGEKNQCVTGEGTPKPESHNDGDFEEIPEEYLQ	2
hirudin mutein M 22 (I29E L30T) (other) VVYTDCTESGQNLCLCEGSVVCGQGNKCETGSDGEKNQCVTGEGTPKPESHNDGDFEEIPEEYLQ	1.8
hirudin mutein M 27 (I29S L30A) (other) VVYTDCTESGQNLCLCEGSVVCGQGNKCSAGSDGEKNQCVTGEGTPKPESHNDGDFEEIPEEYLQ	1.34
hirudin mutein M 34 (I29T L30Q) (other) VVYTDCTESGQNLCLCEGSVVCGQGNKCTQGSDGEKNQCVTGEGTPKPESHNDGDFEEIPEEYLQ	2.4
hirudin mutein M 36 (I29T L30T) (other) VVYTDCTESGQNLCLCEGSVVCGQGNKCTTGSDGEKNQCVTGEGTPKPESHNDGDFEEIPEEYLQ	1.8
hirudin mutein M 30 (I29S L30R) (other) VVYTDCTESGQNLCLCEGSVVCGQGNKCSRGSDGEKNQCVTGEGTPKPESHNDGDFEEIPEEYLQ	2.5
hirudin mutein M 31 (I29S L30T) (other) VVYTDCTESGQNLCLCEGSVVCGQGNKCSTGSDGEKNQCVTGEGTPKPESHNDGDFEEIPEEYLQ	1.1
